# Experiment: soluble fraction after stress (log2 fold change); higher = more stays soluble; pooled small domains, quantitative proteomics
# Conditions: stress: 75 degC
# 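Note: 20 min heating vs room temperature control held 20 min.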
row,Sequence,soluble fraction (log2)
1,HMHPDALTEREREVLSLLADGLSNREIAARLVLALGTVKWYISVIYSKLGVTRRTQAIARARELHLV,-0.0116
2,HMHPEETVNLILDAAFRLFLEKGYEHTSIQDIIGQLGGLSKGAIYHHFNSKEDILIAVTDRMTA,-2.12
3,HMHPEQTLEKIVDISAELFAKKGYEQTSIQDILDATGLSKGGLYHHFKSKEEILEAVMQKRVQY,-0.154
4,HMHPFELNTVTEGQLKRLPFLSDLQIRELLEYRSRYGKMLTLYELKNVEAFDLETISLLVPFIYISEI,-1.36
5,HMHPKTPDELLALMSEEQRGQIEQLAKLVLMAVSYSGASYYDAVTTMYPRMSEERRRIITHVLNTASP,-0.908
6,HMHPLFRVVLAGEPNGVGLDDWLTRHEAELINGPSAIGVLTVKIAMGRRSFETVLDEIRADGETIFVEPV,-3.49
7,HMHPTDMKLTARLEEGAQFVRTQQLSKAIEIFTEVIKLDQNWAEAWNKRATVFYMMGKFKQSQEDIDKVLA,0.0611
8,HMHPTEKNLTSLLADGSFYMNQNKLETAYDTFTKTIELDPSWAEAWNKRATVLYLMGKYELSQADIDQV,0.0869
9,HMHPVTGRIGTVTAANGLNLRADSSEYANVVATLGYGVDVTVTGERINGFYPVRVGTLSGYVSADYVSFNS,-1.23
10,HMHQVHKIDGVKYYLHLVEKGNTLYGISKQYNVSVERIEKANTEALSDGLKENQTLLIPVTSDNKKT,-0.537
11,HMHREITGSLAERNGRYTAILNLYDEDGKRRQKSIALGIPVKGNKRKAQAQLEELKRAYSLGLPQ,-0.346
12,HMHRGTPASIIAAAKQYLTGGQTVELYEREGGPWTFRLRTYLSETPYPEKVRASVEALKPAGVVFLYELQS,-0.019
13,HMHRIKRRNDTLVSALDSIAGIGAKRKKALLQHFGSVRAIKAVSAEEIAKVEGISPTLANQIFEAL,-1.07
14,HMHRTMFYLDVDLAEGQSVKMAVHEDDDPGELAARFADEHQLKSRAMEKLRSVIEENVRLHRRNQ,-0.57
15,HMHRTRNAERTRAAVLKAAAEVLAERGTGASLARIAEVAGVSKSGLLHHFANREQLIVALLED,-1.16
16,HMHSIFPVIRSTSFPTKSNDGELFITSDHTAETRIYYALDLGNTYRLIDQKVMNEINLTESLVKETARF,-1.72
17,HMHSILDDIEGIGPARRKALMRHYMNLDAIKSATVEELAAVPSMNEKSAKAVHNFFHQQKKD,0.0285
18,HMHSKQRDAIFENLRSRKDHPTAEEIYLSLKPAMPAISLATVYRNLAQLENEGLILRLGSGGSARYDGDT,-0.467
19,HMHSLGDQVFETIKELIVNNTYQPGELLQIDKLAAEFGVSTTPVREALLRLEGLGLVDIERNKAAVVT,0.447
20,HMHSPLLDRYLAEVGWRLRHLSGAQREDILAGLREHIADLESAGVAPEEIVARLGSPESVADAAAGEF,-0.0802
21,HMHSPTFYVHVVGQVKVPGVYELEVGSRLFDAVIAAGGFKDDADQASVNLARPLSDGEQIVVLKLGDQ,-0.777
22,HMHTADDFKQLAKQTSNGQLRTRYLALYLFKNGETRTQIATYLGVARGSVNTWVSNYLAHGLEGLQSKP,-2.95
23,HMHTSEDLEKLLTRYFQSHESINRQQFEQLSGFTRTTASRRLKALVEAGKLKNIGLHHFPVYKPTEGNF,-0.485

row,Sequence,soluble fraction (log2)
1,HMHVGVWIMNEKGEILLEQRASNKKVDPNKWARIGGHVDAGEKPIQAIQREILEEIGVKIPLENFIVLET,-0.266
2,HMHVLAVDEALHKLTELNELHAKIVEMRFFSGMTVQEVADELGVSKRKIESEWTMIKAWLRKELN,-0.199
3,HMHVSLSGKIHSELRKLILNGELKAGERLPSEPDLAHELGVSRNSLREAIGLLQREGLLLKKHGIGTFVTD,-1.42
4,HMHVYQSLVTDRVVPGGGYRTTEAILSTEAWRNTLLEQAKRELIGVRNKYASLTELAKVWTAIDTVT,-1.65
5,HMHYALTVDFPAALEARIDPAHRAALRGVLAHDPRPSYQSDPERLYGVAFAGKNVKFTVEDGVLTVRKIEE,-0.151
6,HMHYKLIIFENHTKSTSLDITPEQARQILGVTDYTPEQYEILAEITNRPASYFMDDLVDYYVD,-2.33
7,HMHYNMNYLENLTKTELFDLAKNKFGLTYAEMERHLSIPEGGARYAIKAEHSKYGSDIKKYLVEFLLE,-1.06
8,HMIADPAKPDWTTILAPVTTGTTVTHKTFGQGTVTKLDKTKKYLTVSFAAGQKNFVFPNAFIDGFLK,-0.159
9,HMIADSSSIHQDAKQQLHSYLRTNIQPLMRAGKQLDLKDILHHVTIRKPKLVQQLGMKQVQHMVQVLLD,-1.04
10,HMIAGHLQEKKGFFYIVLSYPDAAGKRKTKWFPTKLSVKGNKKKAEVMLMDARKTFVPPETPL,-0.497
11,HMIAITVGSKVRVKAGATFSDGTKPFTEVYNTVYDVQLLSRNGKEARIGIGEQWTGWMYISDLYPADQ,-3.42
12,HMIAPQISSGKVNTKELNVRSGPATTFGIVKKLPLNAMVGIFEEKNGWFRIATGQWVSKTYVDL,-2.33
13,HMIAVLEEGSRFRAINDISGKPFGPEMIIKNGQVIAAGKKILTKPKKLIGKKEGTKFNISGKEYVIKDI,-0.747
14,HMIAWNFDTMKESLSEMERVDYQEFIKAFLSLELSISDRTILNQVYQDYMDEDDLSLISDELRV,0.0602
15,HMIDDNTIIQIGDSYSKSIRLLGEPIELKNRSLNQKSYFMAVYDFKGRRYRLFFENDVLFDILRD,-2.66
16,HMIDELLDPTHRIMVRHPRVDYVSPGFLIGPDKDVILWGFTGGIIARLFDFLGWTRPWDQSHVQDLPPYML,-0.245
17,HMIDENILSEEIKHYIETNNYAKDDKLPSERSLASLFNVSRALVRKSLISLVDVNYLYVKDKSGYYING,-0.0579
18,HMIDEPENLIQEDKMVNIIYDLALLEGVKTFNSSNFQSVKSNDFVYKKYKIDSLQFAKSTQFYASDINR,0.0618
19,HMIDFDEIEILSSSKIEKIENSEYLKSSIFEKDSNQYIYRLSFENRDQLKNFKKEIEDIDQIKKIDVTY,0.0545
20,HMIDHKVIRSFRQKRNMTLQELAQKANLSVSYLSEIELGKKQPSLETLDKLSKALNISLEGL,-0.535
21,HMIDHLPPQRAAVLAFLQRELVAGRSPSLAEIALAFGFASRNAAQKHVQALVADGLLEQATGRSRGLRLPG,-2.17
22,HMIDIGSKIKKLRSKKSIEIGKKYTGAMLANELGISRSYLGDIESGRTVPNEIILGKIADIFDVDIYELIG,-1.06
23,HMIDLPEAFIQQLKEAVDVGDVTGLRELLGQLRRRYPQQSALSDEAERLLREFDFERLAQLFEGLD,-1.67

row,Sequence,soluble fraction (log2)
1,HMIDNFFTIRFNYSKINEVIRLLKEFNGEIFNKNYDKNEYIIEFSIPKKDAALLISKLKNITGLTIEQ,-1
2,HMIDQIAEQLQQRLAVDTAFATIQRDYPDVIANKDIELLTAIKVNQKIAEGASRASAMLESAKEVYETL,0.196
3,HMIDRPLTLVEDYERFAGELAKITLRFMLDGRKRFNGRLAGFDEDGKIVLETSFGRFAFSFDEIDSARI,-3.08
4,HMIDSVFASYRQVALDDELWDKVRNGAVLPKVELFEVMDGPVLFTYQSKIVAMYEPHPTKAGYIKPRKMFL,-2.09
5,HMIDTTKILPGQEFKNMQELSVALTGQKMPAGKGYVLQQEKFKLYFSWKKITGTHKLIIDEIYEEPKT,-3.23
6,HMIDYIKYTVDGKTYELINNWDGTWSRELEAPLVAGRYDLLLEISQNGLVTYIDSSDPRYEFYLDVI,-3.02
7,HMIEESTVPDLKGKSQEDAIKLLEDANLKYQIVEEESKKIEAGYVISQETDANKKVNAGDTVIIHVST,0.645
8,HMIEFYTMQDMFYFKLTGDNTSRERREALGKILGIGYGNATQMVSRLNNYGISKEEFSKAIEEIEKQLEA,-2.89
9,HMIEIKNLSFSYGKKKQSVFNDFSLTLDKGSVYGLLGKNGTGKSTLLYLMTGLLRPQAGQVLYKGVDVS,0.141
10,HMIEKVNDYVVRFANVNGTGSASANNLFALAIYRMGVPVTPKNIFPSNIQGLPTWFEVRVSGSGYLARRG,0.162
11,HMIELDRTNLLGVFGPKSRPYALLMLSNGEMIKISIGDQFFGWRVYGIDEKSIQVQNGTKQEILRIP,-3.91
12,HMIENGILELKGKTGVAQTVLRPSGKVLIDDEIYDAVALTGYIEKADKVLVTKVEATQLYVEK,-0.0378
13,HMIERLVVSPAAGVFTKKMSVENNTRIDVGHVLGHVGETEVRSPFAGILQNYIAVDGERLTAHQPIAWLRS,-0.0936
14,HMIERVLRTEEHIEAFAGEEVEAKLFAPIDGKKTLRGILGGIEDGRVILTVGDTEYRIEHAKISRLTTVFD,-0.881
15,HMIESVMVGIKELLGDTIDQKYEKYIRLGGIPSDEVDEFNSVFSAYEKVNGNHNGKKKYDYVMNNLPIIPV,-0.574
16,HMIETIQVPRAFNDWHEQADKTKSVFEVYAEIEASENEKLIAWVRNNQNEFAKIWLGALIPELE,-1.7
17,HMIGHIGSAVMLNAKLRPRLPLLHVLALTQSLGERLSAAEAQPEVYRWSDPGQSRVIAEFEGGRLTRWRLE,-2.05
18,HMIGVIVDEVDPDSSLKSGDIITEVNREVILNIDDFVGLVEQIQKTGRSSLLLKILRDKKSLWVTIQFV,0.267
19,HMIHQIPVNVQKIRQIIGINLNENDYLNYLAKLGFVIDEGLIIVPSFRSDVKTQNDLAEEIARV,-0.547
20,HMIINFDAIKLTTELNKYKRHKAIPNTFFDGTYTILDVRELYNDLTPKAQKIADELIEHYNVDVK,-1.73
21,HMIINLGELLKMLEVNKYQDAMDALDSLIEEGGSLEKIESLHEIRQHTHAMNFREAERLLSILIESEGA,-1.73
22,HMIISPKKLEYRQRIINALGDRKMSLNELSKAMGYKGITTKLSFTVDDMIKSGVIEKVMVGAYAKLHIP,-2.33
23,HMIIVMKRNATETQIDHVVRWVESIGYRAHRSNGTEQTVVKAVGGERGGEELKYLAALSGVEKVVPIR,-1.49

# Reference: the domain aggregation screens of Martell et al. (2025)
